Measurements taken from the DeepSol protein solubility set.

assay: soluble on expression in E. coli; label from the status in PepcDB or PDB records

| Sequence | soluble on expression in E. coli |
| --- | --- |
| MASFSILSIFKIGVGPSSSHTIGPMEAGARFCESLKGILEQVVRVQITLHGSLALTGKGHLSDEAVLIGLHGIYANELEVTTKKALLHEALENKVLKLANQHHIPFDYAKDLIFDNKPLTRHQNALILKAFNSKNEVLKEETYYSVGGGFVYTEKELDNLSEEDGNESIAYDFSSAKELLELCQKHQKSIAEIVRLRENALKNHPDATMVKIYHAMLECYDNGANSKERYLPGSLKVTRLAPSIKTRLEKHPTSGKDPLALIDYISLYARAIAEENASGGKVVTAPTNGACAVVPSVLLYAKNHLFENLSQKAINDFLLTSAAIGYLYKKNASLSGAEAGCQAEIGVASSMAAGGLAHLCQATTQQVLIASEIAMEHHLGLTCDPVGGLVQIPCIERNVLGAIKAISASKLALEDEYKPKVSLDEVIATMYATGKDMNEKYKETSLGGLAKTLKC | not soluble |
| RLSQRLIEPVSALKVQLDQHQGDTSQKFIVPEGSAKEFQTLASQLNEYRSQINQVIKREQAFARYASHELRTPLTVMKGSSSLLARSPSTPFQERQIGRIQDATQQMSTMVDALLGLVRYERNTDDSPVRTISEQELHNIVALSQAQADEKSLEFNVQILGHPQTKATTAVLNITLSNLIRNGIAATSAGTIHITMTDTTLSVKDEGEGFSSVPDAEGHGLGLMIVDDLCRRYGWQFTIDTHSEGGCEAVIDLSSEHHEACSEQLPQH | not soluble |
| MGSDKIHHHHHHMINIIICEGKKSERVILNDYINTFFYNYNFEYNIKEFENGGDLLKKYPNNVDIIFMDIDLNDENGFNVSKEIKKFDESVRIIFVSSSNKYIKKGYEIGVYRYLEKPLKYSLFKEAISSYLKECYKNEAILSIKCKCKIYFIKVDDILYLEVLKNDLTIHTEKGIYTFKSSMKEIESNLEEHNFFRCHKSYLINLMKVNMLDIENNIVFINQNSIIVSRYKIKLLREKLNSCLVDVII | not soluble |
| MSILDGFKEVGESNNGKLTMTVMLESVRFSKNVSAVLGFPKYVKVLVNNDEKKFAIQKCNDKDEYAIRFATKKPGEASAVTLRNVDLLVATQKFFSFPELDDPTKIAFYALDGEYYSDEQVIVFNVEGAKNGTVGKRGPKAGSHRKTSQAKLEHHHHHH | soluble |
| MSLKDQVQLVKRRDSIRYEIVSIQDRLSFEKGFFAVIRACQLLSQKNDGIILVGVAGPSGAGKTVFTEKILNFLPSVAVISMDNYNDSSRIVDGNFDDPRLTDYDTLLKNLEDLKEGKQVEVPIYDFKSSSRVGYRTLDVPPSRIVIIEGIYALSEKLRPMLDLRVSVTGGVHFDLVKRVLRDIQRAGQQPEEIIHQISETVYPMYKAFIEPDLQTAQIKIINKFNPFTGFQSPTYILKSRKEGHHHHHH | not soluble |
| MFKRTKLILIATLLLSGCSTTNNESNNETKSVPEEMEASKYVGQGFQPPAEKDAIEFAKKHRKEFEKVGEQFFKDNFGLKVKATNVVGKDDGIEVYVHCDDHGIVFNASLPLYKDAIHQKGSMRSNDNGDDMSMMVGTVLSGFEYRAQKEKYDNLYKFFKENEKKYQYTGFTKEAINKTQNVGYKNEYFYITYSSRSLKEYRKYYEPLIQKNDKEFKEGMERARKEVNYAADTDAVATLFSTKKNFTNDNTEDDVIELSDKLYNLKNKPDKSTITIQIGKPTINTKKAFYDDNRPIEYGVHSKGELEHHHHHH | not soluble |
| MSLKKKLLLMVSVLAVLFVAAACSSKPEAKINTEPYSDRQTMLGTYVQIRIYDDGKEDVLPKAFARVKELGDKITVNQPGSEIDEINQEAGVKPVKVSDDLYPLLKKAYEYSKDSRGGFDMAIGPITSMWHIGFDDARKPSQAEIDQALKLVDYTKVKFNDKEQTVYLEEKGMQLDLGAIAKGFITDEVVKVLKDNGVTTAIVDLGGNVYVLGHSPRGKDMDWTVGIQDPNKARNTVLGQVKESNKTLVTSGIYERYLKVDGKTYHHLFDRETGYPFDNDIAGVTIITDKSIDGDGLSTAVFSMGVKKGLEYVESLKGTDAIFVTKDDKVYISKDIEGNFEIGKDSGYTMGNRADLKEGGSHHHHHH | soluble |
| SMATPNQTACNAESPVALEEAKTSGAPGSPQTPPERHDSGGSLPLTPRMESHSEDEDLAGAVGGLGWNSRSPRTQSPGGCSAEAVLARKKHRRRPSKRKRHWRPYLELSWAEKQQRDERQSQRASRVREEMFAKGQPVAPYNTTQFLMNDRDPEEPNLDVPHGISHPGSSGESEAGDSDGRGRAHGEFQRKDFSETYERFHTESLQGRSKQELVRDYLELEKRLSQAEEETRRLQQLQACTGQQSCRQVEELAAEVQRLRTENQRLRQENQMWNREGCRCDEEPGT | soluble |
| RDFNNLTKGLCTINSWHIYGKDNAVRIGEDSDVLVTREPYVSCDPDECRFYALSQGTTIRGKHSNGTIHDRSQYRALISWPLSSPPTVYNSRVECIGWSSTSCHDGKTRMSICISGPNNNASAVIWYNRRPVTEINTWARNILRTQESECVCHNGVCPVVFTDGSATGPAETRIYYFKEGKILKWEPLAGTAKHIEECSCYGERAEITCTCRDNWQGSNRPVIRIDPVAMTHTSQYICSPVLTDNPRPNDPTVGKCNDPYPGNNNNGVKGFSYLDGVNTWLGRTISIASRSGYEMLKVPNALTDDKSKPTQGQTIVLNTDWSGYSGSFMDYWAEGECYRACFYVELIRGRPKEDKVWWTSNSIVSMCSSTEFLGQWDWPDGAKIEYFL | soluble |
| MTQPPASTSGIMGTLSSWNLKILQINQLHLVHWNAVKFENFEDAALEENGLAVIGVFLKISETSGSPVSTGRPKPLARKLRPAQKHWVLQSRPFLSSQVQENCKVTYFHRKHWVRIRPLRTTPPSWDYTRICIQREMVPARIRVLREMVPEAWRCFPNRLPLLSNIRPDFSKAPLAYVKRWLWTARHPHSLSAAW | soluble |
| MILVGDGEDLEPPDDFLRREVADSVLNLLGDYRFLTKGYFVSLHAEENGCEVFPPVKNALDAYRAPLFMNAVRKLGLETPEFSIRSEPKFERGVLLPLNPFSKNSAKVVKTSHQYAKAFKRLSMNRYPVVQVKSEKYDSFNLYLWRADKEEYNFIAEKIFKGLRIPLGKVLVDVTDGMAKPFYFMPVEKGEINLRLVFEVLYENCLLR | not soluble |
| MKIDLNADLGEGCASDAELLTLVSSANIACGFHAGDAQIMQACVREAIKNGVAIGAHPSFPDRENFGRSAMQLPPETVYAQTLYQIGALATIARAQGGVMRHVKPHGMLYNQAAKEAQLADAIARAVYACDPALILVGLAGSELIRAGKQYGLTTREEVFADRGYQADGSLVPRSQSGALIENEEQALAQTLEMVQHGRVKSITGEWATVAAQTVCLHGDGEHALAFARRLRSAFAEKGIVVAALEHHHHHH | soluble |
| MSLVMGQEKLYIEKELSWLSFNERVLQEAADKSNPLIERMRFLGIYSNNLDEFYKVRFAELKRRIIISEEQGSNAHSRHLLGKIQSRVLKADQEFDGLYNELLLEMARNQIFLINERQLSVNQQNWLRHYFKQYLRQHITPILINPDTDLVQFLKDDYTYLAVEIIRSDSIRYALLEIPSDKVPRFVNLPPEAPRRRKPMILLDNILRYCLDDIFKGFFDYDALNAYSMKMTRDAEYDLVHEMEASLMELMSSSLKQRLTAEPVRFVYQRDMPNALVEVLREKLTISRYDSIVPGGRYHNFKDFINFPNVGKANLVNKPLPRLRHIWFDKAQFRNGFDAIRERDVLLYYPYHTFEHVLELLRQASFDPSVLAIKINIYRVAKDSRIIDSMIHAAHNGKKVTVVVELQARFDEEANIHWAKRLTEAGVHVIFSAPGLKIHAKLFLISRKENGEVVRYAHIGTGNFNEKTARLYTDYSLLTADARITNEVRRVFNFIENPYRPVTFDYLMVSPQNSRRLLYEMVDREIANAQQGLPSGITLKLNNLVDKGLVDRLYAASSSGVPVNLLVRGMCSLIPNLEGISDNIRAISIVDRYLEHDRVYIFENGGDKKVYLSSADWMTRNIDYRIEVATPLLDPRLKQRVLDIIDILFSDTVKARYIDKELSNRYVPRGNRRKVRAQLAIYDYIKSLEQPEEGHHHHHH | soluble |
| MSLELYAASYILPIASPPIPGGAVAVHDGCIVETGTLAELRSRHSGPVHDFPGCAILPGLVNAHTHLELTHFPSWKIRKGIDYSPRTYVDWIIQVIKIRRALSPQELELSVREGLRICLEAGTTAIGEILTDRSLIPLYADSGLRGRLLFEAIGHDPVRNAQLVEELDAAIASFSGGSFLPGISPHAPHTVAEHLHQDVYRLAYERNVPRVIHLAESREESDFFFDSSGKIAEFLYPHVRWESYLPAPRRTTATAWLDGLGVLNGTISAVHCVHLTPSDAEILAKRGVGVVLCPRSNDKLAVGRAPVVLLKRLGVPLALGTDSLASNDSLSLWDEMRYLLDTFPGIFTPTEALSMTTIGSARQLALADRTGSLDKGKHADFLVMKLPGRNGSGEALHEALIHSGEILQVFLAGNLVVSREAFSEGHHHHHH | soluble |
| MSMIYKNIVCPVCGAACDDIQVEFGDGKIEARNACKMGNAKFQEVVSSHRLRQPLIKVNGRLTAAAWDEALERAADILVSAKRPLLFMGSETSCEAHEVGLKIGEYLGALVDSNATICHGPTAMGIQESGKVGATEGQKKNRGDLIVYWGTNPLESMPRQMSRYGVFPRGYWTKRGRFDRTVITVDPRKTPTTEASDLHVQLKPGSDYELISALLTLLHGKTPHPSVEEITGVPIPVMEEMLDMMKNCNFGAISVGLGLSSSIGKHRNAEIAMNLVKELNNYAKFTLGALRGHCNVAGFNQVASYMYGYPFGLDFMRGHPRYNPGEYTTVDVLREKDVDAAFVMCADLVCHIPADCASYLAEIPMVCLDIAPCPSTAASDVVLPGVIDAMECDGTFYRLDDVAVHFEPFTSSPFEFTKSNEDTLKQLFEKIKARK | not soluble |
| SASLIQRIARQACLTFRGSSTGSEGPAPGFPENLSLLKSLLTQVRAEDLNIAPRKALPQPLPRNLPPVTYMHIYETEGFSLGVFLLKSGTCIPLHDHPGMHGMLKVLYGTVRISCMDKLDTGAGHRRPPPEQQFEPPLQPLEREAVRPGVLRSRAEYTEASGPCVLTPHRDNLHQIDAVDGPAAFLDILAPPYDPEDGRDCHYYRVVEPIRPKEASGSACDLPREVWLLETPQADDFWCEGEPYPGPKVLP | soluble |
| MSLKVFQFKDWAVACDNIRHCEANGTQAGDGDNPVSLLLSRDAGPGSRLSAQLDVDDPDGDKVGKLTLKVGRIKWTGIDAEQAFSDAQTTQLLAAMLDADEVALADGKREWTLSLAGLKAALLKMDDVQGRVGTVGALVKKGGKPESAAPAAQPAPLLVPLAPPAARPGDQKLLPAILKQLRAVDKACWDELPDAEHPDVQLYRLSASQVLVLRECGRGAYQGSYKAWTSGDAPPFHPREVPLRGSDGKETFLMNASFDKGELSSYAKGRGIGDCGSGASWAWTGKDFKLMSAQEAPQCRGIAGGVSLRTWVTRQKEGHHHHHH | soluble |
| MSEQDATLDEFVEEGESESTDSANIDPNTLDQEQFGPFTLSTPGEWTAKRLGDIKQLITRGKQPTYDDDGVPVINQECIYWDGWHFENLRYLEEDVAEGWKEKYFPESGDVIVNSTGQGTLGRAQVYPGDQRRAIDSHVTLLRTDEQLCPHFHRYFFESHLGQALLYSMCVNGSTGQIELSKTRLDLLPTPLPPLEEQRKIASVLYNVDQAIQKTEAVIEKIERLKQGLLDDLFTKGLSESNSLRPSPEDHPGLYKKERRQTIPSEWNVESLQNLCVENITYGIVQPGPHVEDGVPYINTEDMTDGDIPTEGLSRTSPEIAEKYSRSQIHAEELVVTIRATIGAVDQVPPELEGANLTRGTARVVPGDKVDNTFLLWAIRSNNFQSELDARVKGTTFDEINLDQLGKIPVPHPDIDEQDRIVDELSTIEERMENEESYLEQLKRLKQGLMQDLLSGEVRTTDVDIPVLDAVAQHG | soluble |
